Five molecules from paper PMC11539920 (Nature, 2024) can be followed below.

Test [1] deals with T1, BRCA1–BARD1 complex (human, UniProt P38398 1-1863; Q99728 1-777). The test can be described thus: pull-down.
For test [2], the target named is BRCA1 (subunit of the purified BRCA1–BARD1 complex) (human, UniProt P38398 1-1863). Briefly: mass photometry.
In test [3] the target is T1, BRCA1–BARD1 complex. The test can be described thus: pull-down. This is another data set of the same source.

Read-outs that look alike come from different tables or passages of the source.

T1 sequence (P38398 whole entry, one chain of several): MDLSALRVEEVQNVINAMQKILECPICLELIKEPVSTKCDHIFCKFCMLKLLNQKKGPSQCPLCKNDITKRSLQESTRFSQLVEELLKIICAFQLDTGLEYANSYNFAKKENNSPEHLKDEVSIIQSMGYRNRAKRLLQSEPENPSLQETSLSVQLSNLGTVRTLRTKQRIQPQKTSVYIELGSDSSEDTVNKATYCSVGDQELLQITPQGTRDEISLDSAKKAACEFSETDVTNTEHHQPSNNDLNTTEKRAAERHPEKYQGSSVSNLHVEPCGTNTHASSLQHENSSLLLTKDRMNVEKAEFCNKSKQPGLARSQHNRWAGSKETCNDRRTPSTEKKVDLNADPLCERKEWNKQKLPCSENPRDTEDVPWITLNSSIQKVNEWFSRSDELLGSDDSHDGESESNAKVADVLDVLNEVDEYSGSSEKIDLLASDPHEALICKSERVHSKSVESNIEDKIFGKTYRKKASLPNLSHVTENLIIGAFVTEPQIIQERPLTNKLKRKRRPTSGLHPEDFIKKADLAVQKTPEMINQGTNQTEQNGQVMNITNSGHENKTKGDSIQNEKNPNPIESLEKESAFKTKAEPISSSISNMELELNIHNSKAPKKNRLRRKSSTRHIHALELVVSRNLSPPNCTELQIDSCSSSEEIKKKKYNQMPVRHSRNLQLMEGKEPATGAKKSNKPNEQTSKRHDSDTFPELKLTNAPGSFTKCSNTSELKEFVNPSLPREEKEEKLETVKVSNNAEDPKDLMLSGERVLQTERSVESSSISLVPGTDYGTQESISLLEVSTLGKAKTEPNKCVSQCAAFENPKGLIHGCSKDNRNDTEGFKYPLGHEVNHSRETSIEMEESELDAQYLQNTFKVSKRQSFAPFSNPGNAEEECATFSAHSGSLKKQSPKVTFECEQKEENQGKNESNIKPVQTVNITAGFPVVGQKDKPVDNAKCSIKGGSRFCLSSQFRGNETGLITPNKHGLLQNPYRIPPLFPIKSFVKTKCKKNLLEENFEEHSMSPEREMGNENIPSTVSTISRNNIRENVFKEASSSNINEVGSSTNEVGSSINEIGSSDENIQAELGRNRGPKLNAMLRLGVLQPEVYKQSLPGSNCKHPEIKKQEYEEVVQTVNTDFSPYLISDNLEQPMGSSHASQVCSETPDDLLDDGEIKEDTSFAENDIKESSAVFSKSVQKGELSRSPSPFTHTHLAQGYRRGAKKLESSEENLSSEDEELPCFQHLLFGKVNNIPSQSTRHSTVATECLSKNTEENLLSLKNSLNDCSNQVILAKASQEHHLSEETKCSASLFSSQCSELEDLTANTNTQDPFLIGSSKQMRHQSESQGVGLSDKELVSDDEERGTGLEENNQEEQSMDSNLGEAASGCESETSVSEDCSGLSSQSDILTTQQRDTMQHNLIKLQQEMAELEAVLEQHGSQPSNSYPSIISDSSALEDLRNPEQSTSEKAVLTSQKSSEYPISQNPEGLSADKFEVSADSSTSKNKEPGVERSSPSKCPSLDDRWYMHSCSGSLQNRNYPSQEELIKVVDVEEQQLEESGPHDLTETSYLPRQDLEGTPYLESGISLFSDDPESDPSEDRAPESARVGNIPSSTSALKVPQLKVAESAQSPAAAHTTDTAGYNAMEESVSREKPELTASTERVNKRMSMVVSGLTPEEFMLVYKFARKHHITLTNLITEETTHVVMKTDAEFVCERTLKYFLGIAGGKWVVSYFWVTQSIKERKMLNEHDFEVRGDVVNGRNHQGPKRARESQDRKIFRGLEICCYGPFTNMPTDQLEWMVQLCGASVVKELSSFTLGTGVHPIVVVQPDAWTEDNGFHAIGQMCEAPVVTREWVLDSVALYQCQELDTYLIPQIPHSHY
Sequence of BRCA1 (subunit of the purified BRCA1–BARD1 complex) (P38398 whole entry, one chain of several): as above

B1: GFP-WRN (enzyme)
chain: not shown
B1: in the test with BRCA1–BARD1 complex [1], the binding result is on record as “binds”.

B2: BARD1 (subunit of the purified BRCA1–BARD1 complex) (natural protein, human, UniProt Q99728 1-777, looked up)
chain: MPDNRQPRNRQPRIRSGNEPRSAPAMEPDGRGAWAHSRAALDRLEKLLRCSRCTNILREPVCLGGCEHIFCSNCVSDCIGTGCPVCYTPAWIQDLKINRQLDSMIQLCSKLRNLLHDNELSDLKEDKPRKSLFNDAGNKKNSIKMWFSPRSKKVRYVVSKASVQTQPAIKKDASAQQDSYEFVSPSPPADVSERAKKASARSGKKQKKKTLAEINQKWNLEAEKEDGEFDSKEESKQKLVSFCSQPSVISSPQINGEIDLLASGSLTESECFGSLTEVSLPLAEQIESPDTKSRNEVVTPEKVCKNYLTSKKSLPLENNGKRGHHNRLSSPISKRCRTSILSTSGDFVKQTVPSENIPLPECSSPPSCKRKVGGTSGRKNSNMSDEFISLSPGTPPSTLSSSSYRRVMSSPSAMKLLPNMAVKRNHRGETLLHIASIKGDIPSVEYLLQNGSDPNVKDHAGWTPLHEACNHGHLKVVELLLQHKALVNTTGYQNDSPLHDAAKNGHVDIVKLLLSYGASRNAVNIFGLRPVDYTDDESMKSLLLLPEKNESSSASHCSVMNTGQRRDGPLVLIGSGLSSEQQKMLSELAVILKAKKYTEFDSTVTHVVVPGDAVQSTLKCMLGILNGCWILKFEWVKACLRRKVCEQEEKYEIPEGPRRSRLNREQLLPKLFDGCYFYLWGTFKHHPKDNLIKLVTAGGGQILSRKPKPDSDVTQTINTVAYHARPDSDQRFCTQYIIYEDLCNYHPERVRQGKVWKAPSSWFIDCVMSFELLPLDS
With B2, the stoichiometry N – broadly, the number of molecules, sites or subunits per partner or assembly – in test [2] is 1.

B3: GST-tagged BLM fragment, residues 636–857 (domain or fragment)
chain: not shown
B3: the binding result with BRCA1–BARD1 complex [3] is “binds”.

B4: GST-tagged BLM fragment, residues 636–1298 (domain or fragment)
chain: not shown
Consider B4, for which the binding result in the test with BRCA1–BARD1 complex [3] was “binds”.

B5: GST-tagged BLM fragment, residues 2–635 (domain or fragment, human, UniProt P54132 2-635, looked up)
chain: AAVPQNNLQEQLERHSARTLNNKLSLSKPKFSGFTFKKKTSSDNNVSVTNVSVAKTPVLRNKDVNVTEDFSFSEPLPNTTNQQRVKDFFKNAPAGQETQRGGSKSLLPDFLQTPKEVVCTTQNTPTVKKSRDTALKKLEFSSSPDSLSTINDWDDMDDFDTSETSKSFVTPPQSHFVRVSTAQKSKKGKRNFFKAQLYTTNTVKTDLPPPSSESEQIDLTEEQKDDSEWLSSDVICIDDGPIAEVHINEDAQESDSLKTHLEDERDNSEKKKNLEEAELHSTEKVPCIEFDDDDYDTDFVPPSPEEIISASSSSSKCLSTLKDLDTSDRKEDVLSTSKDLLSKPEKMSMQELNPETSTDCDARQISLQQQLIHVMEHICKLIDTIPDDKLKLLDCGNELLQQRNIRRKLLTEVDFNKSDASLLGSLWRYRPDSLDGPMEGDSCPTGNSMKELNFSHLPSNSVSPGDCLLTTTLGKTGFSATRKNLFERPLFNTHLQKSFVSSNWAETPRLGKKNESSYFPGNVLTSTAVKDQNKHTASINDLERETQPSYDIDNFDIDDFDDDDDWEDIMHNLAASKSSTAAYQPIKEGRPIKSVSERLSSAKTDCLPVSSTAQNINFSESIQNYTDKSAQNLA
On to B5, for which the binding result with BRCA1–BARD1 complex [3] is reported as “binds”.
